Laboratory results reported in PMC2912912 (BMC Structural Biology, 2010).
“And” between values parts separate entries of the source, which are not always exact repeats. Equal values may be shown once.

Target: the molecule itself
Assay: SEC; analytical gel filtration, Tricorn Superdex 200 10/300, samples 5 mg/mL, 20 mM Tris-HCl pH 8.0, 200 mM NaCl, 1 mM DTT, 4°C; molecular weight against globular standards

Protein	stoichiometry N
IpgC^10-155 (invasion plasmid gene C, residues 10-155) (domain or fragment, source: E. coli BL21 (DE3), purified (Ni2+-NTA Sepharose, TEV digestion, Resource Q)) SISTAVIDAINSGATLKDINAIPDDMMDDIYSYAYDFYNKGRIEEAEVFFRFLCIYDFYNVDYIMGLAAIYQIKEQFQQAADLYAVAFALGKNDYTPVFHTGQCQLRLKAPLKAKECFELVIQHSNDEKLKIKAQSYLDAIQDIKE	2
full-length IpgC (invasion plasmid gene C) (natural protein) MSLNITENESISTAVIDAINSGATLKDINAIPDDMMDDIYSYAYDFYNKGRIEEAEVFFRFLCIYDFYNVDYIMGLAAIYQIKEQFQQAADLYAVAFALGKNDYTPVFHTGQCQLRLKAPLKAKECFELVIQHSNDEKLKIKAQSYLDAIQDIKE	2
IpgC^21-155 (invasion plasmid gene C, residues 21-155) (domain or fragment) SGATLKDINAIPDDMMDDIYSYAYDFYNKGRIEEAEVFFRFLCIYDFYNVDYIMGLAAIYQIKEQFQQAADLYAVAFALGKNDYTPVFHTGQCQLRLKAPLKAKECFELVIQHSNDEKLKIKAQSYLDAIQDIKE	4 and 2
